Reference: patent US20260151494A1 (ARO BIOTHERAPEUTICS, published 2026)
Where a chain is given by its changes, count along the chain named. Each block holds one binder with its values, some of them ahead of it.

What was measured:
[1] = biological target: T1, apical domain of human CD71 (human, UniProt P02786 189-383, limits assumed); experiment: primary ELISA, RLU over HSA
T1 construct: domain: apical domain; Screen 4 panned on human apical domains, the ELISA text says only 'apical domain'

[2] = biological target: T2, human CD71 extracellular domain (human, UniProt P02786 89-760, biotinylated); experiment: primary ELISA, RLU over HSA
T2 construct: also called hCD71; CD71-ECD

[3] = biological target: T1, apical domain of human CD71; experiment: primary ELISA; note: test concentration or dose not given here
[4] = biological target: T2, human CD71 extracellular domain; experiment: primary ELISA; note: test concentration or dose not given here
[5] = biological target: T3, human CD71 extracellular domain (human, UniProt P02786 89-760); experiment: primary ELISA, signal ratio to HSA
T3 construct: also called hCD71; human CD71-ECD

[6] = biological target: T4, apical domain of cynomolgus CD71 (cynomolgus, UniProt A0A2K5X958 189-383); experiment: primary ELISA, signal ratio to HSA
T4 construct: domain: apical domain; also called Cyno apical domain

[7] = biological target: T3, human CD71 extracellular domain; experiment: primary ELISA; note: test concentration or dose not given here
[8] = biological target: T4, apical domain of cynomolgus CD71; experiment: primary ELISA; note: test concentration or dose not given here

T4 sequence (A0A2K5X958 entry or part of it): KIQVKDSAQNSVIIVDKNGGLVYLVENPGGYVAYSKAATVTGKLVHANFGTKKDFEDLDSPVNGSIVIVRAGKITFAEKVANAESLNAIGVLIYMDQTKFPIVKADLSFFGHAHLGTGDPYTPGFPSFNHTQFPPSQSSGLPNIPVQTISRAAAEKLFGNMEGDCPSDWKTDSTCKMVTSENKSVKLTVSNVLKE
T2 sequence (P02786 89-760): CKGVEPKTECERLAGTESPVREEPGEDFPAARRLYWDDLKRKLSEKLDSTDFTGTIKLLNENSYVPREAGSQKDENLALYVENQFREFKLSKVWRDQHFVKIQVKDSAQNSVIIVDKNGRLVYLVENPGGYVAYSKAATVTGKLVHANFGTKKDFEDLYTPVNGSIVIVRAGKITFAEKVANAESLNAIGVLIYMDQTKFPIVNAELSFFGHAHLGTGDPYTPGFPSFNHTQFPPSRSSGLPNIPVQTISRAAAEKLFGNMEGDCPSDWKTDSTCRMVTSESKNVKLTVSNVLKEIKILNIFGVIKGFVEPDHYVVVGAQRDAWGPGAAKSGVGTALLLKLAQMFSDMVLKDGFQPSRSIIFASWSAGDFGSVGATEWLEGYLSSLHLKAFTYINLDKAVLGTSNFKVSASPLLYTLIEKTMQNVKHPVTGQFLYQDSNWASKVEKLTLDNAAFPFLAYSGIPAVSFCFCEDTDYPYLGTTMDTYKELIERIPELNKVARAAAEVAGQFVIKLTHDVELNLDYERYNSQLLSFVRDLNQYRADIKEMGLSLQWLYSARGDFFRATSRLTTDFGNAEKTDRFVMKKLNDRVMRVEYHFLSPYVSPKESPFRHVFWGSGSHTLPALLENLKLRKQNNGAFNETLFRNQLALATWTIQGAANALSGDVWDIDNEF
T3 sequence (P02786 89-760): as above
T1 sequence (P02786 189-383 limits assumed): as the sequence (A0A2K5X958 entry or part of it) above, with G20R, D59Y, S60T, K104N, D106E, Q137R, K176R, N182S, S184N counted along it

Apical domain:HSA [1]: 113
hCD71:HSA [2]: 35
RLU [3]: 4.69e+06 RLU
RLU [4]: 1.47e+06 RLU
B2: CD71-binding FN3 domain of SEQ ID NO: 484 (designed binder)
chain: MLPAPKNLVVSRVTEDSARLSWTAPDAAFDSFEIAYQELSLWGEAIVLTVPGSERSYDLTGLKPGTEYYVHIGGVKGGIWSSPLSAISTT

Apical domain:HSA [1]: 181
hCD71:HSA [2]: 70
RLU [3]: 4.27e+06 RLU
RLU [4]: 1.66e+06 RLU
B6: CD71-binding FN3 domain of SEQ ID NO: 480 (designed binder)
chain: MLPAPKNLVVSRVTEDSARLSWTAPDAAFDSFEIDYAEDIREGEAIALVVPGSERSYDLTGLKPGTEYWVSIGGVKGGTWSRPLFAPFTT

Apical domain:HSA [1]: 154
hCD71:HSA [2]: 141
RLU [3]: 3.26e+06 RLU
RLU [4]: 2.99e+06 RLU
B8: CD71-binding FN3 domain of SEQ ID NO: 536 (designed binder)
chain: MLPAPKNLVVSRVTEDSARLSWTAPDAAFDSFDIGYTETVSFGEAIVLTVPGSERSYDLTGLKPGTEYIVKILGVKGGFASFPLSAIFTT

hCD71:HSA [5]: 441
Cyno apical domain:HSA [6]: 394
RLU [7]: 7.04e+06 RLU
RLU [8]: 6.29e+06 RLU
B9: CD71-binding FN3 domain of SEQ ID NO: 119 (designed binder)
chain: MSLPAPKNLVVSRVTEDSARLSWTAPDAAFDSFFIGYLEPQPPGEAIELYVPGSERSYDLTGLKPGTEYNVTIQGVKGGFPSDPLVAFFTT

Apical domain:HSA [1]: 50
hCD71:HSA [2]: 23
RLU [3]: 5.14e+06 RLU
RLU [4]: 2.42e+06 RLU
B11: CD71-binding FN3 domain of SEQ ID NO: 537 (designed binder)
chain: MLPAPKNLVVSRVTEDSARLSWTAPDAAFDSFEIGYFENLYLGEAIVLTVPGSERSYDLTGLKPGTEYWVQIGGVKGGNWSAPLSAIFTT

Apical domain:HSA [1]: 404
hCD71:HSA [2]: 263
RLU [3]: 5.21e+06 RLU
RLU [4]: 3.39e+06 RLU
B15: CD71-binding FN3 domain of SEQ ID NO: 510 (designed binder)
chain: MLPAPKNLVVSRVTEDSARLSWTAPDAAFDSFFIAYGESPESGEAIVLTVPGSERSYDLTGLKPGTEYLVWIAGVKGGYYSDPLSAIFTT

Apical domain:HSA [1]: 370
hCD71:HSA [2]: 289
RLU [3]: 2.4e+06 RLU
RLU [4]: 1.88e+06 RLU
B17: CD71-binding FN3 domain of SEQ ID NO: 477 (designed binder)
chain: MLPAPKNLVVSRVTEDSARLSWTAPDAAFDSFEIAYFETCRTGEAIVLTVPGSERSYDLTGLKPGTEYGVSIYGVKGGAHSGPLSAIFTT

Apical domain:HSA [1]: 340
hCD71:HSA [2]: 235
RLU [3]: 4.06e+06 RLU
RLU [4]: 2.81e+06 RLU
B20: CD71-binding FN3 domain of SEQ ID NO: 489 (designed binder)
chain: MLAPKNLVVSRVTEDSARLSWTAPDAAFDSFFIGYLEPQPPGEAISLLVPGSERSYDLTGLKPGTEYNVTIQGVKGGFPSSPLLAGFTT

Apical domain:HSA [1]: 24
hCD71:HSA [2]: 71
RLU [3]: 3.58e+06 RLU
RLU [4]: 1.05e+06 RLU
B21: CD71-binding FN3 domain of SEQ ID NO: 468 (designed binder)
chain: MLPAPKNLVVSRVTEDSARLSWTAPDAAFDSFLIQYDEEGVWGEAIVLTVPGSERSYDLTGLKPGTEYSVGIGGVKGGWSSVPLSAIFTT

hCD71:HSA [5]: 43
Cyno apical domain:HSA [6]: 42
RLU [7]: 5.01e+06 RLU
RLU [8]: 4.89e+06 RLU
B29: CD71-binding FN3 domain of SEQ ID NO: 124 (designed binder)
chain: MSLPAPKNLVVSRVIEDSARLSWTAPDAAFDSFEIGYFENLYLGEAIVLTVPGSERSYDLTGLKPGTEYWVQIGGVKGGNWSAPLSAIFTT

More lines, now with the values behind:

B1: CD71-binding FN3 domain of SEQ ID NO: 471 (designed binder)
chain: MLPAPKNLVVSRVTEDSARLSWTAPDAAFDSFTIWYYESPTGGEAIVLTVPGSERSYDLTGLKPGTEYMVFIQGVKGGCFSTPLYAIFTT
Apical domain:HSA [1]: 98
hCD71:HSA [2]: 42
RLU [3]: 3.88e+06 RLU
RLU [4]: 1.65e+06 RLU

B3: CD71-binding FN3 domain of SEQ ID NO: 532 (designed binder)
chain: MLPAPKNLVVSRVTEDSARLSWTAPDAAFDSFDINYDELSGEGEAIALFVPGSERSYDLTGLKPGTEYWVSIGGVKGGRFSEPLYARFTT
Apical domain:HSA [1]: 197
hCD71:HSA [2]: 62
RLU [3]: 4.59e+06 RLU
RLU [4]: 1.45e+06 RLU

B4: CD71-binding FN3 domain of SEQ ID NO: 495 (designed binder)
chain: MLPAPKNLVVSRVTEDSARLSWTAPDAAFDSFFINYREDKWIGEAIVLTVPGSERSYDLTGLKPGTEYSVPIDGVKGGAASPPLSAIFTT
Apical domain:HSA [1]: 504
hCD71:HSA [2]: 142
RLU [3]: 4.03e+06 RLU
RLU [4]: 1.14e+06 RLU

B5: CD71-binding FN3 domain of SEQ ID NO: 519 (designed binder)
chain: MLPAPKNLVVSRVTEDSARLSWTAPDAAFDSFPIAYPEHLPPGEAIVLTVPGSERSYDLTGLKPGTEYPVNIRGVKGGFVSFPLSAIFTT
Apical domain:HSA [1]: 253
hCD71:HSA [2]: 156
RLU [3]: 5.24e+06 RLU
RLU [4]: 3.24e+06 RLU

B7: CD71-binding FN3 domain of SEQ ID NO: 488 (designed binder)
chain: MLPAPKNLVVSRVTEDSARLSWTAPDAAFDSFIIQYGEYLRWGEAIVLTVPGSERSYDLTGLKPGTEYQVEIYGVKGGPLSKPLSAIFTT
Apical domain:HSA [1]: 103
hCD71:HSA [2]: 53
RLU [3]: 6.14e+06 RLU
RLU [4]: 3.18e+06 RLU

B10: CD71-binding FN3 domain of SEQ ID NO: 509 (designed binder)
chain: B11 chain with F37W, L40A, L42K, W69E, Q71F, N79V, A82V
Apical domain:HSA [1]: 353
hCD71:HSA [2]: 134
RLU [3]: 4.6e+06 RLU
RLU [4]: 1.74e+06 RLU

B12: CD71-binding FN3 domain of SEQ ID NO: 531 (designed binder)
chain: B11 chain with N39Y, L40S, L42Y, W69R, Q71Y, N79G, A82R
Apical domain:HSA [1]: 586
hCD71:HSA [2]: 226
RLU [3]: 4.16e+06 RLU
RLU [4]: 1.6e+06 RLU

B13: CD71-binding FN3 domain of SEQ ID NO: 506 (designed binder)
chain: B11 chain with F37W, L40A, L42K, W69V, Q71F, N79V, A82V, F88S
Apical domain:HSA [1]: 112
hCD71:HSA [2]: 39
RLU [3]: 4.74e+06 RLU
RLU [4]: 1.64e+06 RLU

B14: CD71-binding FN3 domain of SEQ ID NO: 503 (designed binder)
chain: B11 chain with G35S, N39T, L40S, Y41W, L42H, P51L, W69R, Q71Y, N79S, A82Q
Apical domain:HSA [1]: 145
hCD71:HSA [2]: 150
RLU [3]: 2.26e+06 RLU
RLU [4]: 2.35e+06 RLU

B16: CD71-binding FN3 domain of SEQ ID NO: 463 (designed binder)
chain: MLPAPKNLVVSRVTEDSARLSWTAPDAAFDSFLILYIEQDHRGEAIVLTVPGSERSYDLTGLKPGTEYWVHITGVKGGYYSAPLSAIFTT
Apical domain:HSA [1]: 89
hCD71:HSA [2]: 91
RLU [3]: 5.51e+06 RLU
RLU [4]: 5.62e+06 RLU

B18: CD71-binding FN3 domain of SEQ ID NO: 466 (designed binder)
chain: MLPAPKNLVVSRVTEDSARLSWTAPDAAFDSFYIAYAEPRPDGEAIWLLVPGSERSYDLTGLKPGTEYSVLIHGVKGGLLSSPLSADFTT
Apical domain:HSA [1]: 279
hCD71:HSA [2]: 70
RLU [3]: 4.3e+06 RLU
RLU [4]: 1.08e+06 RLU

B19: CD71-binding FN3 domain of SEQ ID NO: 540 (designed binder)
chain: B18 chain with W47I, L49V, S85D, D87G
Apical domain:HSA [1]: 306
hCD71:HSA [2]: 198
RLU [3]: 5.85e+06 RLU
RLU [4]: 3.79e+06 RLU

B22: CD71-binding FN3 domain of SEQ ID NO: 120 (designed binder)
chain: B29 chain with I15T, G36A, F38Q, N40L, L41S, Y42L, L43W, N80E
hCD71:HSA [5]: 443
Cyno apical domain:HSA [6]: 534
RLU [7]: 4.26e+06 RLU
RLU [8]: 5.13e+06 RLU

B23: CD71-binding FN3 domain of SEQ ID NO: 126 (designed binder)
chain: MSLPAPKNLVVSRVTEDSARLSWTAPDAVFDSFEIAYQELSLWGEAIVLTVPGSERSYDLTGLKPGTEYYVHIGGVKGGIWSSPLSAYFTT
hCD71:HSA [5]: 227
Cyno apical domain:HSA [6]: 382
RLU [7]: 3.13e+06 RLU
RLU [8]: 5.27e+06 RLU

B24: CD71-binding FN3 domain of SEQ ID NO: 131 (designed binder)
chain: B29 chain with I15T, G36A, L41D, Y42W, L43A, W70V, Q72F, N80D, W81F, A83P
hCD71:HSA [5]: 101
Cyno apical domain:HSA [6]: 145
RLU [7]: 3.35e+06 RLU
RLU [8]: 4.81e+06 RLU

B25: CD71-binding FN3 domain of SEQ ID NO: 132 (designed binder)
chain: B29 chain with I15T, G79V
hCD71:HSA [5]: 142
Cyno apical domain:HSA [6]: 201
RLU [7]: 3.63e+06 RLU
RLU [8]: 5.15e+06 RLU

B26: CD71-binding FN3 domain of SEQ ID NO: 139 (designed binder)
chain: B29 chain with I15T, N80A, W81Y, A83T
hCD71:HSA [5]: 409
Cyno apical domain:HSA [6]: 496
RLU [7]: 3.7e+06 RLU
RLU [8]: 4.49e+06 RLU

B27: CD71-binding FN3 domain of SEQ ID NO: 130 (designed binder)
chain: B29 chain with I15T, G36A, N40R, L41T, Y42W, L43F, N80D
hCD71:HSA [5]: 147
Cyno apical domain:HSA [6]: 196
RLU [7]: 3.76e+06 RLU
RLU [8]: 5e+06 RLU

B28: CD71-binding FN3 domain of SEQ ID NO: 141 (designed binder)
chain: B29 chain with I15T, I88Y
hCD71:HSA [5]: 192
Cyno apical domain:HSA [6]: 245
RLU [7]: 4.22e+06 RLU
RLU [8]: 5.4e+06 RLU

B30: CD71-binding FN3 domain of SEQ ID NO: 122 (designed binder)
chain: B29 chain with I15T, L21P, W70Y, Q72H, N80I, A83S, I88Y
hCD71:HSA [5]: 105
Cyno apical domain:HSA [6]: 80
RLU [7]: 5.5e+06 RLU
RLU [8]: 4.2e+06 RLU
